This passage reports reverse-splicing fitness results from the RNAGym collection of RNA variant scans (doi:10.1093/molbev/msab373).

B1: Azoarcus group I ribozyme (parent)
chain: GUGCCUUGCGCCGGGAAACCACGCAAGGGAUGGUGUCAAAUUCGGCGAAACCUAAGCGCCCGCCCGGGCGUAUGGCAACGCCGAGCCAAGCUUCGGCGCCUGCGCCGAUGAAGGUGUAGAGACUAGACGGCACCCACCUAAGGCAAACGCUAUGGUGAAGGCAUAGUCCAGGGAGUGGCGAAAGUCACACAAACCGG

The data set covers variants of B1. The data set can be described thus: reverse-splicing fitness (ratio to wild type); higher = more active; in vitro selection; Mg2+ level not given. The procedure, abridged: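 An in vitro group I ribozyme library with randomized positions was T7-transcribed and gel-purified. In triplicate, 10 pmol RNA in EPPS pH 7.5 was reacted with 50 pmoles of a 30-nt RNA substrate for 1 h at 37 °C across several added MgCl2 levels (1–48 mM), then stopped with EDTA. Products were reverse transcribed from a substrate-complementary primer, PCR-amplified and sequenced (HiSeq 4000). Fitness is a variant's read proportion after selection over that before, normalised to wild type.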
With GUGCCUUGCGCCGGGAAACCACGCAAGGGAUGGUGUCAAAUUCGGCGAAACCUAAGCGCCCGCCCGGGCGUAUGGCAACGCAGAGCCAAGCUUCGGCGCCUGCGCCGAUGAAGGUGUAGUGACUAGACGGCACCCACCUAAGGCAAACGAUAUGGUGAAGGCAUAGUCCAGGGAGCGGCGAAAGUCACACAAACCGG, the reverse-splicing fitness amounted to 0.00899.

Take GUGCCUUGCGCCGGGAAACCACGCAAGGGAUGGUGUCAAAUUCGGCGAAACCUAAGCGCCCGCCCGGGCGUAUGGCAACGCAGAGCCAAGCUUCGGCGCCUGCGCCGAUGAAGGUGUAGUGACUAGACGGCACCCACCUAAGGCAAACGAUAUGGUGAAGGCAUAGUCCAGGGAGGGGCGAAAGUCACACAAACCGG: the reverse-splicing fitness is 0.00257.

Take GUGCCUUGCGCCGGGAAACCACGCAAGGGAUGGUGUCAAAUUCGGCGAAACCUAAGCGCCCGCCCGGGCGUAUGGCAACGCAGAGCCAAGCUUCGGCGCCUGCGCCGAUGAAGGUGUAGUGACUAGACGGCACCCACCUAAGGCAAACGUUAUGGUGAAGGCAUAGUCGAGGGAGGGGCGAAAGUCACACAAACCGG: the reverse-splicing fitness came to 0.00165.

As to GUGCCUUGCGCCGGGAAACCACGCAAGGGAUGGUGUCAAAUUCGGCGAAACCUAAGCGCCCGCCCGGGCGUAUGGCAACGCAGAGCCAAGCUUCGGCGCCUGCGCCGAUGAAGGUGUAGUGACUAGACGGCACCCACCUAAGGCAAACGUUAUGGUGAAGGCAUAGUCGAGGGAGAGGCGAAAGUCACACAAACCGG, the reverse-splicing fitness worked out at 0.00534.

In the case of GUGCCUUGCGCCGGGAAACCACGCAAGGGAUGGUGUCAAAUUCGGCGAAACCUAAGCGCCCGCCCGGGCGUAUGGCAACGCAGAGCCAAGCUUCGGCGCCUGCGCCGAUGAAGGUGUAGUGACUAGACGGCACCCACCUAAGGCAAACGUUAUGGUGAAGGCAUAGUCGAGGGAGCGGCGAAAGUCACACAAACCGG, the reverse-splicing fitness was determined as 0.00363.

Turning to GUGCCUUGCGCCGGGAAACCACGCAAGGGAUGGUGUCAAAUUCGGCGAAACCUAAGCGCCCGCCCGGGCGUAUGGCAACGCAGAGCCAAGCUUCGGCGCCUGCGCCGAUGAAGGUGUAGUGACUAGACGGCACCCACCUAAGGCAAACGGUAUGGUGAAGGCAUAGUCAAGGGAGGGGCGAAAGUCACACAAACCGG, the reverse-splicing fitness turned out to be 0.00312.

On to GUGCCUUGCGCCGGGAAACCACGCAAGGGAUGGUGUCAAAUUCGGCGAAACCUAAGCGCCCGCCCGGGCGUAUGGCAACGCAGAGCCAAGCUUCGGCGCCUGCGCCGAUGAAGGUGUAGUGACUAGACGGCACCCACCUAAGGCAAACGGUAUGGUGAAGGCAUAGUCAAGGGAGCGGCGAAAGUCACACAAACCGG, for which the reverse-splicing fitness stood at 0.00411.

As to GUGCCUUGCGCCGGGAAACCACGCAAGGGAUGGUGUCAAAUUCGGCGAAACCUAAGCGCCCGCCCGGGCGUAUGGCAACGCAGAGCCAAGCUUCGGCGCCUGCGCCGAUGAAGGUGUAGUGACUAGACGGCACCCACCUAAGGCAAACGGUAUGGUGAAGGCAUAGUCAAGGGAGAGGCGAAAGUCACACAAACCGG, the reverse-splicing fitness is 0.00498.

For the variant GUGCCUUGCGCCGGGAAACCACGCAAGGGAUGGUGUCAAAUUCGGCGAAACCUAAGCGCCCGCCCGGGCGUAUGGCAACGCAGAGCCAAGCUUCGGCGCCUGCGCCGAUGAAGGUGUAGUGACUAGACGGCACCCACCUAAGGCAAACGGUAUGGUGAAGGCAUAGUCGAGGGAGUGGCGAAAGUCACACAAACCGG, the reverse-splicing fitness came to 0.00634.

Turning to GUGCCUUGCGCCGGGAAACCACGCAAGGGAUGGUGUCAAAUUCGGCGAAACCUAAGCGCCCGCCCGGGCGUAUGGCAACGCAGAGCCAAGCUUCGGCGCCUGCGCCGAUGAAGGUGUAGUGACUAGACGGCACCCACCUAAGGCAAACGGUAUGGUGAAGGCAUAGUCAAGGGAGUGGCGAAAGUCACACAAACCGG, the reverse-splicing fitness stood at 0.00708.

For the variant GUGCCUUGCGCCGGGAAACCACGCAAGGGAUGGUGUCAAAUUCGGCGAAACCUAAGCGCCCGCCCGGGCGUAUGGCAACGCAGAGCCAAGCUUCGGCGCCUGCGCCGAUGAAGGUGUAGUGACUAGACGGCACCCACCUAAGGCAAACGGUAUGGUGAAGGCAUAGUCUAGGGAGUGGCGAAAGUCACACAAACCGG, the reverse-splicing fitness stood at 0.00543.

For GUGCCUUGCGCCGGGAAACCACGCAAGGGAUGGUGUCAAAUUCGGCGAAACCUAAGCGCCCGCCCGGGCGUAUGGCAACGCAGAGCCAAGCUUCGGCGCCUGCGCCGAUGAAGGUGUAGUGACUAGACGGCACCCACCUAAGGCAAACGUUAUGGUGAAGGCAUAGUCUAGGGAGUGGCGAAAGUCACACAAACCGG, the reverse-splicing fitness worked out at 0.00643.

Regarding GUGCCUUGCGCCGGGAAACCACGCAAGGGAUGGUGUCAAAUUCGGCGAAACCUAAGCGCCCGCCCGGGCGUAUGGCAACGCAGAGCCAAGCUUCGGCGCCUGCGCCGAUGAAGGUGUAGUGACUAGACGGCACCCACCUAAGGCAAACGUUAUGGUGAAGGCAUAGUCGAGGGAGUGGCGAAAGUCACACAAACCGG, the reverse-splicing fitness is 0.00546.

For the variant GUGCCUUGCGCCGGGAAACCACGCAAGGGAUGGUGUCAAAUUCGGCGAAACCUAAGCGCCCGCCCGGGCGUAUGGCAACGCAGAGCCAAGCUUCGGCGCCUGCGCCGAUGAAGGUGUAGUGACUAGACGGCACCCACCUAAGGCAAACGUUAUGGUGAAGGCAUAGUCAAGGGAGUGGCGAAAGUCACACAAACCGG, the reverse-splicing fitness stood at 0.00439.

As to GUGCCUUGCGCCGGGAAACCACGCAAGGGAUGGUGUCAAAUUCGGCGAAACCUAAGCGCCCGCCCGGGCGUAUGGCAACGCAGAGCCAAGCUUCGGCGCCUGCGCCGAUGAAGGUGUAGUGACUAGACGGCACCCACCUAAGGCAAACGGUAUGGUGAAGGCAUAGUCGAGGGAGAGGCGAAAGUCACACAAACCGG, the reverse-splicing fitness was 0.00506.

Take GUGCCUUGCGCCGGGAAACCACGCAAGGGAUGGUGUCAAAUUCGGCGAAACCUAAGCGCCCGCCCGGGCGUAUGGCAACGCAGAGCCAAGCUUCGGCGCCUGCGCCGAUGAAGGUGUAGUGACUAGACGGCACCCACCUAAGGCAAACGGUAUGGUGAAGGCAUAGUCGAGGGAGCGGCGAAAGUCACACAAACCGG: the reverse-splicing fitness came out at 0.00251.

On to GUGCCUUGCGCCGGGAAACCACGCAAGGGAUGGUGUCAAAUUCGGCGAAACCUAAGCGCCCGCCCGGGCGUAUGGCAACGCAGAGCCAAGCUUCGGCGCCUGCGCCGAUGAAGGUGUAGUGACUAGACGGCACCCACCUAAGGCAAACGGUAUGGUGAAGGCAUAGUCGAGGGAGGGGCGAAAGUCACACAAACCGG, for which the reverse-splicing fitness was found to be 0.00232.

With GUGCCUUGCGCCGGGAAACCACGCAAGGGAUGGUGUCAAAUUCGGCGAAACCUAAGCGCCCGCCCGGGCGUAUGGCAACGCAGAGCCAAGCUUCGGCGCCUGCGCCGAUGAAGGUGUAGUGACUAGACGGCACCCACCUAAGGCAAACGUUAUGGUGAAGGCAUAGUCAAGGGAGCGGCGAAAGUCACACAAACCGG, the reverse-splicing fitness stood at 0.00357.

For the variant GUGCCUUGCGCCGGGAAACCACGCAAGGGAUGGUGUCAAAUUCGGCGAAACCUAAGCGCCCGCCCGGGCGUAUGGCAACGCAGAGCCAAGCUUCGGCGCCUGCGCCGAUGAAGGUGUAGUGACUAGACGGCACCCACCUAAGGCAAACGUUAUGGUGAAGGCAUAGUCAAGGGAGAGGCGAAAGUCACACAAACCGG, the reverse-splicing fitness was found to be 0.00392.

For the variant GUGCCUUGCGCCGGGAAACCACGCAAGGGAUGGUGUCAAAUUCGGCGAAACCUAAGCGCCCGCCCGGGCGUAUGGCAACGCAGAGCCAAGCUUCGGCGCCUGCGCCGAUGAAGGUGUAGUGACUAGACGGCACCCACCUAAGGCAAACGUUAUGGUGAAGGCAUAGUCAAGGGAGGGGCGAAAGUCACACAAACCGG, the reverse-splicing fitness amounted to 0.00226.

With GUGCCUUGCGCCGGGAAACCACGCAAGGGAUGGUGUCAAAUUCGGCGAAACCUAAGCGCCCGCCCGGGCGUAUGGCAACGCAGAGCCAAGCUUCGGCGCCUGCGCCGAUGAAGGUGUAGUGACUAGACGGCACCCACCUAAGGCAAACGGUAUGGUGAAGGCAUAGUCCAGGGAGAGGCGAAAGUCACACAAACCGG, the reverse-splicing fitness was found to be 0.00566.

Consider GUGCCUUGCGCCGGGAAACCACGCAAGGGAUGGUGUCAAAUUCGGCGAAACCUAAGCGCCCGCCCGGGCGUAUGGCAACGCAGAGCCAAGCUUCGGCGCCUGCGCCGAUGAAGGUGUAGUGACUAGACGGCACCCACCUAAGGCAAACGGUAUGGUGAAGGCAUAGUCCAGGGAGGGGCGAAAGUCACACAAACCGG, for which the reverse-splicing fitness was determined as 0.00281.

Take GUGCCUUGCGCCGGGAAACCACGCAAGGGAUGGUGUCAAAUUCGGCGAAACCUAAGCGCCCGCCCGGGCGUAUGGCAACGCAGAGCCAAGCUUCGGCGCCUGCGCCGAUGAAGGUGUAGUGACUAGACGGCACCCACCUAAGGCAAACGGUAUGGUGAAGGCAUAGUCCAGGGAGCGGCGAAAGUCACACAAACCGG: the reverse-splicing fitness turned out to be 0.00779.

GUGCCUUGCGCCGGGAAACCACGCAAGGGAUGGUGUCAAAUUCGGCGAAACCUAAGCGCCCGCCCGGGCGUAUGGCAACGCAGAGCCAAGCUUCGGCGCCUGCGCCGAUGAAGGUGUAGUGACUAGACGGCACCCACCUAAGGCAAACGUUAUGGUGAAGGCAUAGUCCAGGGAGUGGCGAAAGUCACACAAACCGG: the reverse-splicing fitness is 0.0723.

Take GUGCCUUGCGCCGGGAAACCACGCAAGGGAUGGUGUCAAAUUCGGCGAAACCUAAGCGCCCGCCCGGGCGUAUGGCAACGCAGAGCCAAGCUUCGGCGCCUGCGCCGAUGAAGGUGUAGUGACUAGACGGCACCCACCUAAGGCAAACGGUAUGGUGAAGGCAUAGUCCAGGGAGUGGCGAAAGUCACACAAACCGG: the reverse-splicing fitness was 0.0131.

With GUGCCUUGCGCCGGGAAACCACGCAAGGGAUGGUGUCAAAUUCGGCGAAACCUAAGCGCCCGCCCGGGCGUAUGGCAACGCAGAGCCAAGCUUCGGCGCCUGCGCCGAUGAAGGUGUAGUGACUAGACGGCACCCACCUAAGGCAAACGUUAUGGUGAAGGCAUAGUCUAGGGAGCGGCGAAAGUCACACAAACCGG, the reverse-splicing fitness was 0.00368.

On to GUGCCUUGCGCCGGGAAACCACGCAAGGGAUGGUGUCAAAUUCGGCGAAACCUAAGCGCCCGCCCGGGCGUAUGGCAACGCAGAGCCAAGCUUCGGCGCCUGCGCCGAUGAAGGUGUAGUGACUAGACGGCACCCACCUAAGGCAAACGUUAUGGUGAAGGCAUAGUCUAGGGAGAGGCGAAAGUCACACAAACCGG, for which the reverse-splicing fitness stood at 0.00458.

GUGCCUUGCGCCGGGAAACCACGCAAGGGAUGGUGUCAAAUUCGGCGAAACCUAAGCGCCCGCCCGGGCGUAUGGCAACGCAGAGCCAAGCUUCGGCGCCUGCGCCGAUGAAGGUGUAGUGACUAGACGGCACCCACCUAAGGCAAACGGUAUGGUGAAGGCAUAGUCUAGGGAGAGGCGAAAGUCACACAAACCGG: the reverse-splicing fitness worked out at 0.00325.

Take GUGCCUUGCGCCGGGAAACCACGCAAGGGAUGGUGUCAAAUUCGGCGAAACCUAAGCGCCCGCCCGGGCGUAUGGCAACGCAGAGCCAAGCUUCGGCGCCUGCGCCGAUGAAGGUGUAGUGACUAGACGGCACCCACCUAAGGCAAACGGUAUGGUGAAGGCAUAGUCUAGGGAGGGGCGAAAGUCACACAAACCGG: the reverse-splicing fitness is 0.00296.

With GUGCCUUGCGCCGGGAAACCACGCAAGGGAUGGUGUCAAAUUCGGCGAAACCUAAGCGCCCGCCCGGGCGUAUGGCAACGCAGAGCCAAGCUUCGGCGCCUGCGCCGAUGAAGGUGUAGUGACUAGACGGCACCCACCUAAGGCAAACGGUAUGGUGAAGGCAUAGUCUAGGGAGCGGCGAAAGUCACACAAACCGG, the reverse-splicing fitness stood at 0.00369.
